In article doi:10.1101/2022.05.13.491857 (bioRxiv, 2022):
Read-outs that look alike come from different tables or passages of the source.

How the values were obtained:
Experiment in all cases: pull-down
ΔWRC230 [1] = target: T1, ΔWRC230 (human, UniProt Q7L576 1-1253; Q9Y2A7 1-1128; Q92558 1-230; Q9NYB9 1-158; Q8WUW1 1-75)
WRC230WCA [2] = target: T2, WRC230WCA (human, UniProt Q7L576 1-1253; Q9Y2A7 1-1128; Q92558 1-230; Q92558 485-559; Q9NYB9 1-158; …)
ΔWRC230 [3] = target: T1, ΔWRC230; remark: listed apart in the source
WRC230WCA [4] = target: T2, WRC230WCA; remark: listed apart in the source

B1: GST-Arf1 (natural protein)
chain: not shown
**Q.** How did the Kd (ΔWRC230 [1]) turn out when B1 was run?
**A.** Its Kd is ~660 nM.

**Q.** And the Kd (WRC230WCA [2])?
**A.** The Kd was ~8.2 µM.

**Q.** What about the Kd (ΔWRC230 [3]) of the same binder?
**A.** Its Kd is ~22.6 µM.

**Q.** And the Kd (WRC230WCA [4])?
**A.** Its Kd is ~107 µM.
